Experimental data published in publication PMC2363329, “Interaction of the PA2G4 (EBP1) protein with ErbB-3 and regulation of this binding by heregulin” (British Journal of Cancer, 2000).

Target: T1, ErbB-3, endogenous in AU565 cells (human (endogenous in AU565), UniProt P21860 20-1342)
T1 construct: ErbB-3, endogenous in the human AU565 mammary carcinoma cell line; source: endogenous, AU565 lysate
Assay: co-IP; AU565 cells untreated, HRG (10 ng ml-1, 15 min) or EGF (50 ng ml-1, 15 min); cytoplasmic fractions in IP buffer (50 mM Tris pH 8.0, 120 mM NaCl, 0.5% NP-40); ErbB-3 immunoprecipitation, blot with anti-p38-2G4 and anti-ErbB-3; densitometry
Conditions: partners not purified

T1 sequence (P21860 20-1342): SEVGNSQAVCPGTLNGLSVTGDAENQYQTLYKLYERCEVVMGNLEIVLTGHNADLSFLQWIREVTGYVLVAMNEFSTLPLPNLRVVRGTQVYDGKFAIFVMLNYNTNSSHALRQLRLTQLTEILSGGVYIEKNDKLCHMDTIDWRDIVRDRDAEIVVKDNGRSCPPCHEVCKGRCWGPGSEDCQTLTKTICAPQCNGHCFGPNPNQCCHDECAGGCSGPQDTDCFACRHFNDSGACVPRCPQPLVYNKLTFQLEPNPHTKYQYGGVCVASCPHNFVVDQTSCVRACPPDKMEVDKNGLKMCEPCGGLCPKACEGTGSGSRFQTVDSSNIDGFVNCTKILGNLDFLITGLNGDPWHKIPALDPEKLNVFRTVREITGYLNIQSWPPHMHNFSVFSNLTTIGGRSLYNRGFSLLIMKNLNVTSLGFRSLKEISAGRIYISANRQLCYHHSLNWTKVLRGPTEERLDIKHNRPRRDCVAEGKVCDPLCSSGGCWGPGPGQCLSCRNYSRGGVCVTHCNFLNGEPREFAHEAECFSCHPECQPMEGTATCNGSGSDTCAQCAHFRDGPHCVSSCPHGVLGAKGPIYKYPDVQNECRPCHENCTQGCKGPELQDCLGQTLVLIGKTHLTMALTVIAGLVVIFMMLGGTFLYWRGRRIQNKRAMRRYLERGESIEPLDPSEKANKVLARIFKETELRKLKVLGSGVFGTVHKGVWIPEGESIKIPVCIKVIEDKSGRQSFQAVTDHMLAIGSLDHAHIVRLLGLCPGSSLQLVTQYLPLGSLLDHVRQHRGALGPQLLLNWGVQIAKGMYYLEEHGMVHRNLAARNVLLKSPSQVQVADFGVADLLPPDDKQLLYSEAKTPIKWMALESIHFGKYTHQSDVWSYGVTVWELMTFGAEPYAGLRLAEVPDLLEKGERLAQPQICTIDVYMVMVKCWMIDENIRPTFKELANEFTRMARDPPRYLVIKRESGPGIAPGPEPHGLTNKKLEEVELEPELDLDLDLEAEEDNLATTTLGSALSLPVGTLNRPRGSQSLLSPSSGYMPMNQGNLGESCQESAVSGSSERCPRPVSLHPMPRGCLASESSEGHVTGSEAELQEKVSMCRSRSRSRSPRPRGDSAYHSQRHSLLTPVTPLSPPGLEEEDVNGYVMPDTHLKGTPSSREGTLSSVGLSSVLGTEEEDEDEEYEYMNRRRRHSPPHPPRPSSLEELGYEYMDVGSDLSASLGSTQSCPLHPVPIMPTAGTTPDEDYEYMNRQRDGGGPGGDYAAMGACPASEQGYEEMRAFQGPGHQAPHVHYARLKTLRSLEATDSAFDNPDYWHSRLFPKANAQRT

ratio of Ebp1 to ErbB-3 in ErbB-3 immunoprecipitates (densitometry), EGF-treated cells: 1.3
ratio of Ebp1 to ErbB-3 in ErbB-3 immunoprecipitates (densitometry), control cells: 1.6
ratio of Ebp1 to ErbB-3 in ErbB-3 immunoprecipitates (densitometry), heregulin-treated cells: 0.3
B1: Ebp1, endogenous approximately 50 kDa protein in AU565 cells (natural protein, human (endogenous in AU565), UniProt Q9UQ80 1-394, looked up)
chain: MSGEDEQQEQTIAEDLVVTKYKMGGDIANRVLRSLVEASSSGVSVLSLCEKGDAMIMEETGKIFKKEKEMKKGIAFPTSISVNNCVCHFSPLKSDQDYILKEGDLVKIDLGVHVDGFIANVAHTFVVDVAQGTQVTGRKADVIKAAHLCAEAALRLVKPGNQNTQVTEAWNKVAHSFNCTPIEGMLSHQLKQHVIDGEKTIIQNPTDQQKKDHEKAEFEVHEVYAVDVLVSSGEGKAKDAGQRTTIYKRDPSKQYGLKMKTSRAFFSEVERRFDAMPFTLRAFEDEKKARMGVVECAKHELLQPFNVLYEKEGEFVAQFKFTVLLMPNGPMRITSGPFEPDLYKSEMEVQDAELKALLQSSASRKTQKKKKKKASKTAENATSGETLEENEAGD
notes: Ebp1 (PA2G4), endogenous full-length protein of approximately 50 kDa in the human AU565 mammary carcinoma cell line; predicted protein of 394 amino acid residues; also called PA2G4; source: endogenous, AU565 lysate
